Patent US5770702, “Fibronectin binding protein as well as its preparation” (dated 1998)

Molecular target: Human fibronectin (intact) (human, UniProt P02751-8, 125I-labelled in the cell binding assays; coupled to Sepharose in the affinity chromatography)
Assay: inhibition of labelled fibronectin binding to S. aureus cells

B1: 165 kD fibronectin binding protein (FNBP) isolated from E. coli pFR001 (receptor)
chain: ASEQKTTTVEENGNSATDNKTSETQTTATNVNHIEETQSYNATVTEQPSNATQVTTEEAPKAVQAPQTAQPANIETVKEEVVKEEAKPQVKETTQSQDNSGDQRQVDLTPKKATQNQVAETQVEVAQPRTASESKPRVTRSADVAEAKEASNAKVETGTDVTSKVTVEIGSIEGHNNTNKVEPHAGQRAVLKYKLKFENGLHQGDYFDFTLSNNVNTHGVSTARKVPEIKNGSVVMATGEVLEGGKIRYTFTNDIEDKVDVTAELEINLFIDPKTVQTNGNQTITSTLNEEQTSKELDVKYKDGIGNYYANLNGSIETFNKANNRFSHVAFIKPNNGKTTSVTVTGTLMKGSNQNGNQPKVRIFEYLGNNEDIAKSVYANTTDTSKFKEVTSNMSGNLNLQNNGSYSLNIENLDKTYVVHYDGEYLNGTDEVDFRTQMVGHPEQLYKYYYDRGYTLTWDNGLVLYSNKANGNEKNGPIIQNNKFEYKEDTIKETLTGQYDKNLVTTVEEEYDSSTLDIDYHTAIDGGGGYVDGYIETIEETDSSAIDIDYHTAVDSEAGHVGGYTESSEESNPIDFEESTHENSKHHADVVEYEEDTNPGGGQVTTESNLVEFDEESTKGIVTGAVSDHTTVEDTKEYTTESNLIELVDELPEEHGQAQGPVEEITKNNHHISHSGLGTENGHGNYDVIEEIEENSHVDIKSELGYEGGQNSGNQSFEEDTEEDKPKYEQGGNIVDIDFDSVPQIHGQNKGNQSFEEDTEKDKPKYEHGGNIIDIDFDSVPHIHGFNKHTEIIEEDTNKDKPSYQFGGHNSVDFEEDTLPKVSGQNEGQQTIEEDTTPPIVPPTPPTPEVPSEPETPTPPTPEVPSEPETPTPPTPEVPSEPETPTPPTPEVPAEPGKPVPPAKEEPKKPSKPVEQGKVVTPVIEINEKVKAVAPTKKPQSKKSELPETGGEESTNKGMLFGGLFSILGLALLRRNKKNHKA
fold more active than the 87 kD protein on a molar basis: 30 times
